Experimental data as given in the supplement of paper PMC5998384.

Experiments:
HeLa Kyoto [1] = assay: solubility in G1/S (NP-40 vs SDS abundance) (log2 ratio); higher = more soluble; details: cell cycle stage: G1/S
HeLa Kyoto [2] = assay: solubility change mitosis vs G1/S (difference of NP-40 vs SDS log2 ratios) (log2 ratio difference); higher = more soluble in mitosis
HeLa Kyoto [3] = assay: thermal stability score vs G1/S (z-score of summed log2 fold changes over temperatures); higher = more thermally stable than in G1/S
HeLa Kyoto [4] = assay: melting temperature (median over replicates), in situ; higher = more thermally stable
[5] = cell cycle stage: early G1 (4.5 h after nocodazole release)
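Wherever melting temperature (median over replicates), in situ is given: HeLa Kyoto cells synchronized by double thymidine or nocodazole block, proteins quantified by TMT10plex mass spectrometry, three independent biological replicates.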
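Wherever solubility change mitosis vs G1/S (difference of NP-40 vs SDS log2 ratios) is given: synchronized HeLa Kyoto cells (double thymidine block for G1/S, nocodazole release for mitosis), protein amounts in NP-40 versus SDS lysates quantified by mass spectrometry, three biological replicates.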
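Wherever solubility in G1/S (NP-40 vs SDS abundance) is given: HeLa Kyoto cells arrested at G1/S by double thymidine block, proteins quantified by TMT10plex mass spectrometry in mild NP-40 versus SDS extracts, three biological replicates.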
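Wherever thermal stability score vs G1/S (z-score of summed log2 fold changes over temperatures) is given: synchronized HeLa Kyoto cells, proteins quantified by TMT10plex mass spectrometry, three biological replicates, mitosis taken 0.5 h after nocodazole release, G1/S directly after double thymidine block.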

Row | Sequence | solubility in G1/S (log2) (HeLa Kyoto [1]) | solubility change mitosis (log2) (HeLa Kyoto [2]) | thermal stability score (HeLa Kyoto [3]; [5]) | thermal stability score (HeLa Kyoto [3]; cell cycle stage: mitosis) | melting temperature (HeLa Kyoto [4]; cell cycle stage: G1/S) [°C] | melting temperature (HeLa Kyoto [4]; cell cycle stage: mitosis) [°C]
1 | MAAYLQWRRFVFFDKELVKEPLSNDGAAPGATPASGSAASKFLCLPPGITVCDSGRGSLVFGDMEGQIWFLPRSLQLTGFQAYKLRVTHLYQLKQHNILASVGEDEEGINPLVKIWNLEKRDGGNPLCTRIFPAIPGTEPTVVSCLTVHENLNFMAIGFTDGSVTLNKGDITRDRHSKTQILHKGNYPVTGLAFRQAGKTTHLFVVTTENVQSYIVSGKDYPRVELDTHGCGLRCSALSDPSQDLQFIVAGDECVYLYQPDERGPCFAFEGHKLIAHWFRGYLIIVSRDRKVSPKSEFTSRDSQSSDKQILNIYDLCNKFIAYSTVFEDVVDVLAEWGSLYVLTRDGRVHALQEKDTQTKLEMLFKKNLFEMAINLAKSQHLDSDGLAQIFMQYGDHLYSKGNHDGAVQQYIRTIGKLEPSYVIRKFLDAQRIHNLTAYLQTLHRQSLANADHTTLLLNCYTKLKDSSKLEEFIKKKSESEVHFDVETAIKVLRQAGYYSHALYLAENHAHHEWYLKIQLEDIKNYQEALRYIGKLPFEQAESNMKRYGKILMHHIPEQTTQLLKGLCTDYRPSLEGRSDREAPGCRANSEEFIPIFANNPRELKAFLEHMSEVQPDSPQGIYDTLLELRLQNWAHEKDPQVKEKLHAEAISLLKSGRFCDVFDKALVLCQMHDFQDGVLYLYEQGKLFQQIMHYHMQHEQYRQVISVCERHGEQDPSLWEQALSYFARKEEDCKEYVAAVLKHIENKNLMPPLLVVQTLAHNSTATLSVIRDYLVQKLQKQSQQIAQDELRVRRYREETTRIRQEIQELKASPKIFQKTKCSICNSALELPSVHFLCGHSFHQHCFESYSESDADCPTCLPENRKVMDMIRAQEQKRDLHDQFQHQLRCSNDSFSVIADYFGRGVFNKLTLLTDPPTARLTSSLEAGLQRDLLMHSRRGT [VPS11] | -0.142 | -0.106 | -0.498 | -0.231 | 51.3 | 49.9
2 | MCGIFAYMNYRVPRTRKEIFETLIKGLQRLEYRGYDSAGVAIDGNNHEVKERHIQLVKKRGKVKALDEELYKQDSMDLKVEFETHFGIAHTRWATHGVPSAVNSHPQRSDKGNEFVVIHNGIITNYKDLRKFLESKGYEFESETDTETIAKLIKYVFDNRETEDITFSTLVERVIQQLEGAFALVFKSVHYPGEAVATRRGSPLLIGVRSKYKLSTEQIPILYRTCTLENVKNICKTRMKRLDSSACLHAVGDKAVEFFFASDASAIIEHTNRVIFLEDDDIAAVADGKLSIHRVKRSASDDPSRAIQTLQMELQQIMKGNFSAFMQKEIFEQPESVFNTMRGRVNFETNTVLLGGLKDHLKEIRRCRRLIVIGCGTSYHAAVATRQVLEELTELPVMVELASDFLDRNTPVFRDDVCFFISQSGETADTLLALRYCKDRGALTVGVTNTVGSSISRETDCGVHINAGPEIGVASTKAYTSQFISLVMFGLMMSEDRISLQNRRQEIIRGLRSLPELIKEVLSLEEKIHDLALELYTQRSLLVMGRGYNYATCLEGALKIKEITYMHSEGILAGELKHGPLALIDKQMPVIMVIMKDPCFAKCQNALQQVTARQGRPIILCSKDDTESSKFAYKTIELPHTVDCLQGILSVIPLQLLSFHLAVLRGYDVDFPRNLAKSVTVE [GFPT2] | -0.201 | -0.124 | -1.27 | 0.586 | 54.3 | 53.9
3 | MFRFMRDVEPEDPMFLMDPFAIHRQHMSRMLSGGFGYSPFLSITDGNMPGTRPASRRMQQAGAVSPFGMLGMSGGFMDMFGMMNDMIGNMEHMTAGGNCQTFSSSTVISYSNTGDGAPKVYQETSEMRSAPGGIRETRRTVRDSDSGLEQMSIGHHIRDRAHILQRSRNHRTGDQEERQDYINLDESEAAAFDDEWRRETSRFRQQRPLEFRRLESSGAGGRRAEGPPRLAIQGPEDSPSRQSRRYDW [MLF2] | 0.236 | -0.0421 | 1.43 | 5.61 | 46.2 | –
4 | MAAAAELSLLEKSLGLSKGNKYSAQGERQIPVLQTNNGPSLTGLTTIAAHLVKQANKEYLLGSTAEEKAIVQQWLEYRVTQVDGHSSKNDIHTLLKDLNSYLEDKVYLTGYNFTLADILLYYGLHRFIVDLTVQEKEKYLNVSRWFCHIQHYPGIRQHLSSVVFIKNRLYTNSH [EEF1E1] | 0.394 | 0.0967 | -0.612 | -0.172 | 48.6 | 49.7
5 | MFSKLAHLQRFAVLSRGVHSSVASATSVATKKTVQGPPTSDDIFEREYKYGAHNYHPLPVALERGKGIYLWDVEGRKYFDFLSSYSAVNQGHCHPKIVNALKSQVDKLTLTSRAFYNNVLGEYEEYITKLFNYHKVLPMNTGVEAGETACKLARKWGYTVKGIQKYKAKIVFAAGNFWGRTLSAISSSTDPTSYDGFGPFMPGFDIIPYNDLPALERALQDPNVAAFMVEPIQGEAGVVVPDPGYLMGVRELCTRHQVLFIADEIQTGLARTGRWLAVDYENVRPDIVLLGKALSGGLYPVSAVLCDDDIMLTIKPGEHGSTYGGNPLGCRVAIAALEVLEEENLAENADKLGIILRNELMKLPSDVVTAVRGKGLLNAIVIKETKDWDAWKVCLRLRDNGLLAKPTHGDIIRFAPPLVIKEDELRESIEIINKTILSF [OAT] | 0.246 | -0.168 | 0.897 | -0.508 | 52.8 | 53
6 | MVLGPEQKMSDDSVSGDHGESASLGNINPAYSNPSLSQSPGDSEEYFATYFNEKISIPEEEYSCFSFRKLWAFTGPGFLMSIAYLDPGNIESDLQSGAVAGFKLLWILLLATLVGLLLQRLAARLGVVTGLHLAEVCHRQYPKVPRVILWLMVELAIIGSDMQEVIGSAIAINLLSVGRIPLWGGVLITIADTFVFLFLDKYGLRKLEAFFGFLITIMALTFGYEYVTVKPSQSQVLKGMFVPSCSGCRTPQIEQAVGIVGAVIMPHNMYLHSALVKSRQVNRNNKQEVREANKYFFIESCIALFVSFIINVFVVSVFAEAFFGKTNEQVVEVCTNTSSPHAGLFPKDNSTLAVDIYKGGVVLGCYFGPAALYIWAVGILAAGQSSTMTGTYSGQFVMEGFLNLKWSRFARVVLTRSIAIIPTLLVAVFQDVEHLTGMNDFLNVLQSLQLPFALIPILTFTSLRPVMSDFANGLGWRIAGGILVLIICSINMYFVVVYVRDLGHVALYVVAAVVSVAYLGFVFYLGWQCLIALGMSFLDCGHTCHLGLTAQPELYLLNTMDADSLVSR [SLC11A2] | -0.142 | -0.211 | 2.43 | -0.114 | 58.8 | 57.6
7 | MSDAAVDTSSEITTKDLKEKKEVVEEAENGRDAPANGNAENEENGEQEADNEVDEEEEEGGEEEEEEEEGDGEEEDGDEDEEAESATGKRAAEDDEDDDVDTKKQKTDEDD [PTMA] | -1.5 | -0.00535 | -0.717 | -1.69 | 54.9 | 55.1
